For one molecule, Kd results are on record in PMC6713926, “Structural Basis for Properdin Oligomerization and Convertase Stimulation in the Human Complement System” (Frontiers in Immunology, 2019).

This test deals with T1, Biotinylated C3b (human, UniProt P01024 23-667; P01024 749-1663, biotin (Maleimide-PEG2-Biotin)).
T1 construct: complement C3, human, beta chain; complement C3, human, alpha' chain of C3b; also called biotin-C3b; immobilized C3b; source: made from plasma C3 by trypsin cleavage in the presence of Maleimide-PEG2-Biotin, purified by cation exchange
T1 sequence (P01024 23-667, chain 1 of 2): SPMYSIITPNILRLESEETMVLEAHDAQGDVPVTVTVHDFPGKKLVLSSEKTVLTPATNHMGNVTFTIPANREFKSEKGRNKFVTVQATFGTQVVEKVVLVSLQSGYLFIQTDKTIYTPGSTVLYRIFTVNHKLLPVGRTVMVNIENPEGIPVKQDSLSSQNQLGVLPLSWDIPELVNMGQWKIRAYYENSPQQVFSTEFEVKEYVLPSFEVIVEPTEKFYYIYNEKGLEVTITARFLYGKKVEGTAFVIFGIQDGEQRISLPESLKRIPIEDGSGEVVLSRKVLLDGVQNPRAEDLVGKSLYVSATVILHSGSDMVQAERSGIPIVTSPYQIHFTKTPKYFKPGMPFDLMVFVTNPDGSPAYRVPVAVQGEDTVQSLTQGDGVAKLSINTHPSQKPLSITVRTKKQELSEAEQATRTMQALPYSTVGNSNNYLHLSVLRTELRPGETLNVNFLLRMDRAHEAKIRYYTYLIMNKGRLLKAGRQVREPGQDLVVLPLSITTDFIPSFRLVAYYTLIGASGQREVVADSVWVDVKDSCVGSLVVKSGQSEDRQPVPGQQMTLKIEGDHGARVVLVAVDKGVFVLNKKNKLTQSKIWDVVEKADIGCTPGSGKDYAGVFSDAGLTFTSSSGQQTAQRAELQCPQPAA
T1 sequence (P01024 749-1663, chain 2 of 2): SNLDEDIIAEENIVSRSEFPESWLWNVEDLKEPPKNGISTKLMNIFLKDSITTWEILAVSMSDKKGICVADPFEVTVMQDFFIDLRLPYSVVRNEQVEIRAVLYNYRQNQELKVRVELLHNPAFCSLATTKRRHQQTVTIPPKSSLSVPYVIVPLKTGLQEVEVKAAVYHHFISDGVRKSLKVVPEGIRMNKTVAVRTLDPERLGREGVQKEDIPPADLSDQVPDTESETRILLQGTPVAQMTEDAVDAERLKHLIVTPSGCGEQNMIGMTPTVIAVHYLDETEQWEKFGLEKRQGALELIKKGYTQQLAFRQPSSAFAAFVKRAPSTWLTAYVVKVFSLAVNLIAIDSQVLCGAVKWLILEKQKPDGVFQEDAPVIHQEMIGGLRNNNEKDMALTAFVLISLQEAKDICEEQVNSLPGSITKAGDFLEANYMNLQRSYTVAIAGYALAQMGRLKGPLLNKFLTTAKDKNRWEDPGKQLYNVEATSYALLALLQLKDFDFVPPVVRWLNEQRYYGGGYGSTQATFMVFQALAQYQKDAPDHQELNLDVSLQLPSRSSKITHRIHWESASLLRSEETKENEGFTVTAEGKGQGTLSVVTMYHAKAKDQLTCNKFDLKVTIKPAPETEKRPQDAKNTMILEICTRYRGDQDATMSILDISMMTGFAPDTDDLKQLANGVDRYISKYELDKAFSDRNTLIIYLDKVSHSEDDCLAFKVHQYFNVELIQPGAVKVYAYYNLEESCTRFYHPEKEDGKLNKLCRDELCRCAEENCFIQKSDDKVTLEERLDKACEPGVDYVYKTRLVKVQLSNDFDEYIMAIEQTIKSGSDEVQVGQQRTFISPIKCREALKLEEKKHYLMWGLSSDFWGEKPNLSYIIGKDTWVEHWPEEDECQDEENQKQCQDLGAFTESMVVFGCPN
Nature of the test: BLI; biotinylated C3b on streptavidin sensors; FPht variants at 100 to 1.56 μg/mL, 60 s steps; 30°C; 20 mM MES pH 6.0, 100 mM NaCl, 0.05% Tween, 1 mg/mL BSA; steady state 1:1 fit (for WT also kinetic analysis). The settings on record: both partners purified. A general note: BLI is a label-free optical method that tracks binding on a fibre tip over time.

B1: FPht R353A (complex)
chain 1: DPVLCFTQYEESSGKCKGLLGGGVSVEDCCLNTAFAYQKRSGGLCQPCRSPRWSLWSTWAPCSVTCSEGSQLRYRRCVGWNGQCSGKVAPGTLEWQLQACEDQQCCPEMGGWSGWGPWEPCSVTCSKGTRTRRRACNHPAPKCGGHCPGQAQESEACDTQQVCPTHGAWATWGPWTPCSASCHGGPHEPKETRSRKCSAPEPSQKPPGKPCPGLAYEQRRCTGLPPCP
chain 2: VAGGWGPWGPVSPCPVTCGLGQTMEQRTCNHPVPQHGGPFCAGDATRTHICNTAVPCPVDGEWDSWGEWSPCIRRNMKSISCQEIPGQQSRGRTCRGAKFDGHRCAGQQQDIRHCYSIQHCPLKGSWSEWSTWGLCMPPCGPNPTRARQRLCTPLLPKYPPTVSMVEGQGEKNVTFWGRPLPRCEELQGQKLVVEEKRPCLHVPACKDPEEEEL
What is called Kd is the equilibrium constant for the complex coming apart. As for B1, the Kd came out at 1000 nM.
